Results as given in the supplement of paper PMC12042874.
± gives the uncertainty stated by the source.

Assay: amyloid nucleation score (Sup35N fusion, yeast selection) (log enrichment); library NNK1; higher = more nucleation; inactive = no reads after selection
Procedure, shortened: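 DiMSum was used to calculate nucleation scores as log enrichment of output over input reads, centred on the mode score of non-aggregating sequences. Sequences with fewer than 100 input reads were not scored. Input and output came from Illumina sequencing of plasmid inserts in psi-negative yeast expressing peptides of 20 random codons fused to Sup35N, induced 24 hours with 100 μM copper sulfate and then grown 7 days at 30°C on medium lacking adenine and uracil.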
In the case of HRRNMAKC, the amyloid nucleation score is reported as “inactive”. Work on HRSVGSRECRSSSEFYVLR yielded an amyloid nucleation score of 3.77 ± 0.088. Work on HRTDRCVVMLHWPWIF yielded an amyloid nucleation score of -0.025 ± 0.56. In the case of HSCEPVMLVLNMNR, the amyloid nucleation score is reported as 8.159 ± 0.072. With HSDSNWIVDVLHSLYDKWLV the amyloid nucleation score was 0.913 ± 0.5. In the case of HSFGKTFGDCYRRHSYLVNE, the amyloid nucleation score is reported as -0.437 ± 0.41. HSGSAE gave an amyloid nucleation score of -1.28 ± 1.3. In the case of HSLGLANYFTSHEGLVGTF, the amyloid nucleation score is reported as “inactive”. For HSLSFTNVVDTSLPLVLANF, the amyloid nucleation score was -2.15 ± 2.4. Work on HSNYFPKSLYVLGLFCSTVS yielded an amyloid nucleation score of 6.22 ± 0.065. In the case of HSRSCKSFLI, the amyloid nucleation score is reported as “inactive”. HSSDLRAFLTDTFSRFYRIG gave an amyloid nucleation score of 0.911 ± 0.8. Substance HSTLFGSKFWGKTQHNFDS has an amyloid nucleation score of -0.151 ± 1.1. With HSVNYTLSQVNGSGLVFRAF the amyloid nucleation score was 2.41 ± 0.12. Substance HTESRSSYGYVCPGYNLISF has an amyloid nucleation score of 0.2 ± 0.63. With HTFHVL the amyloid nucleation score was “inactive”. Substance HTFSRRTGAGGSAKLT has an amyloid nucleation score of 0.972 ± 0.6. HTKTLAFHIILTIILRCMFL gave an amyloid nucleation score of 0.713 ± 0.34. For HVCEGEVVR, the amyloid nucleation score was -0.135 ± 0.37. In the case of HVGQAVSSCDSNLE, the amyloid nucleation score is reported as -0.365 ± 0.59. With HVGRIPGEVYSLKFTGLGRY the amyloid nucleation score was -0.839 ± 0.95. In the case of HVHNYNFIFAVWIHP, the amyloid nucleation score is reported as 5.87 ± 0.062. HVLMLNW gave an amyloid nucleation score of 3.05 ± 0.084. With HVNSRRVLSHFVFDCARIGT the amyloid nucleation score was 0.592 ± 0.69. In the case of HVPSFRFFFRDNLI, the amyloid nucleation score is reported as 0.385 ± 0.46. HVRSWI gave an amyloid nucleation score of 1.76 ± 0.76. For HVVFTKMCSNTTET, the amyloid nucleation score was 0.026 ± 0.49. With HYAVGRARNLGCLDLSQ the amyloid nucleation score was 0.064 ± 0.48. Work on HYGAKCGGPRAWGRDTDR yielded an amyloid nucleation score of 0.156 ± 0.69. HYSNVKTGGKSGKWEIRDLE gave an amyloid nucleation score of -0.559 ± 0.35. In the case of IADPNRFFTLLNLPMQCREA, the amyloid nucleation score is reported as “inactive”. Substance IAGRRPALYRVWNSRCSLLN has an amyloid nucleation score of 0.014 ± 0.49. In the case of IARLHT, the amyloid nucleation score is reported as “inactive”. In the case of IASFVEERLSEIPYLATLGL, the amyloid nucleation score is reported as -0.385 ± 0.46. Work on IASVWFRCFHRNRLVWSLRR yielded an amyloid nucleation score of 0.214 ± 0.44. In the case of IAVFWCFKMNWALMMRTKDM, the amyloid nucleation score is reported as 0.13 ± 0.38. In the case of IAVKQFSRPPVFYIYSSLEC, the amyloid nucleation score is reported as 0.642 ± 0.62. IAYKPLTWSSWEGSISIIRV gave an amyloid nucleation score of 0.149 ± 0.4. IAYNDSYMVKYCVREVLMDE showed an amyloid nucleation score of 4.29 ± 0.13. ICFFGCQGGGPRLRQDRCRT showed an amyloid nucleation score of -0.53 ± 0.63. Substance ICITYL has an amyloid nucleation score of 2.56 ± 0.12. Work on ICSRTVKFYSSSF yielded an amyloid nucleation score of -2.03 ± 2.4. For ICTSSTKGRLCRSCPLASRL, the amyloid nucleation score was 0.205 ± 0.38. ICVCKDVCGLYRCLLGTGGS showed an amyloid nucleation score of 1.13 ± 0.57. Work on ICYIPADFVKPAMVNLYLAM yielded an amyloid nucleation score of 2.99 ± 0.11. In the case of IDFKGTKKLLSDRAPVGDST, the amyloid nucleation score is reported as 0.549 ± 1. With IDMGSGTNFSTCKCATLIMI the amyloid nucleation score was “inactive”. For IDVFEITSKSFAARGAQFVH, the amyloid nucleation score was -1.97 ± 1.3. IEIKTIFVSFLFCECKFCGY showed an amyloid nucleation score of 5.63 ± 0.057. IESMVYITPCIEGIRWNWEK gave an amyloid nucleation score of 0.122 ± 0.36. For IETWCVKWFH, the amyloid nucleation score was -0.299 ± 0.32. IFATTIFLLGTRTKLMSG gave an amyloid nucleation score of 0.971 ± 0.65. In the case of IFFSCQVGYSAIARDARWTR, the amyloid nucleation score is reported as 2.04 ± 0.14. IFGTHFGTCFSGHAEEDTGE gave an amyloid nucleation score of 0.724 ± 0.83. IFLIMKNRTSILRPTGFLVS showed an amyloid nucleation score of -0.402 ± 0.49. IFLNKRSTSAWFSMLLLFLS showed an amyloid nucleation score of 1.4 ± 0.14. For IFRMAPKQCPSLWVASPHWI, the amyloid nucleation score was 0.743 ± 0.55. Work on IFSFNMQDN yielded an amyloid nucleation score of -0.363 ± 1.2. IFSLCSVLSSNIEECPS gave an amyloid nucleation score of -0.257 ± 0.8. Substance IFVVMQTIFMWLDSWADQSL has an amyloid nucleation score of 0.391 ± 0.35. With IFYIYLRGLVMIVRRSMVIR the amyloid nucleation score was “inactive”. Substance IFYSLQLVTARSTEVMGDTP has an amyloid nucleation score of 1.1 ± 0.88. For IGACLRQSLVISYDVIFMLL, the amyloid nucleation score was “inactive”. With IGACVMQVNLCQSSGVSSYL the amyloid nucleation score was 5.72 ± 0.062. IGCKCDIFVCNCISVCYVGA showed an amyloid nucleation score of 4.3 ± 0.16. In the case of IGDKYGYCKYGRYADGQVIS, the amyloid nucleation score is reported as “inactive”. IGDNVNGSLLEIW gave an amyloid nucleation score of -0.528 ± 0.32. In the case of IGENCRWRMSSRCGFNGNDT, the amyloid nucleation score is reported as -0.37 ± 0.43. In the case of IGFHSMDFEQYFCYFSVKTK, the amyloid nucleation score is reported as 0.616 ± 0.75. With IGFML the amyloid nucleation score was 1.69 ± 0.32. IGGFASLGYGYIRDVIRVTS gave an amyloid nucleation score of 0.493 ± 0.45. IGGHRYGVDKY showed an amyloid nucleation score of -0.194 ± 0.72. Work on IGKSCFIFVTG yielded an amyloid nucleation score of 0.56 ± 0.43. For IGLFWSFVKKIEVIICVGML, the amyloid nucleation score was 0.665 ± 0.9. In the case of IGQLHFIEITNMREGHPFLA, the amyloid nucleation score is reported as 0.53 ± 0.63. For IGYSGYY, the amyloid nucleation score was -0.296 ± 0.41. IHLIDLTRVSAG showed an amyloid nucleation score of 0.627 ± 0.63. Substance IHNNRVGVYCILNNTQRVE has an amyloid nucleation score of 0.2 ± 0.61. IIEIFVDIRYHFMY showed an amyloid nucleation score of 1.91 ± 0.38. In the case of IIIEVSQTDTV, the amyloid nucleation score is reported as -0.292 ± 0.79. Work on IINRNYI yielded an amyloid nucleation score of 1.1 ± 0.84. IINVLC gave an amyloid nucleation score of 3.73 ± 0.056. IIVGVVNTRDYLYCRNFVYI gave an amyloid nucleation score of 2.79 ± 0.1. For IKDTGYYLHMIEQPDTLNLW, the amyloid nucleation score was 0.651 ± 0.53. IKTAFMVMNNGKDVMSRSWG showed an amyloid nucleation score of 0.402 ± 0.4. For IKTNHKDNLWNNFNLYDKAH, the amyloid nucleation score was 0.233 ± 0.31. In the case of IKWWKLCGVVRIGNNCLRYL, the amyloid nucleation score is reported as 0.64 ± 0.72.
